# B1: rd85 (structured_RNA)
# RNA: GGGAAUAUACUAAUAUUGGUUGAGUUGUCCAAGCUCUAAUUGUGUCCUUUAGCUGUACGGAUUAUAAAAGUAAUAGGGAUGUGUU
# B2: SLP4 (structured_RNA)
# RNA: GGGAUUCUCGUAACUACAUAGCACAAGUAGAUGUAGUUAACUUUAAUCUCACAGCAAUGUGAUUUUAAUAGCUUCUUAGGAGAAU
# B3: PK (structured_RNA)
# RNA: GGGUCUUGUGCAGAAUGAAUUCUCGUAACUACAUAGCACAAGUAGAUGUAGUUA
# B4: PKP4 (structured_RNA)
# RNA: GGGCUUGUGCAGAAUGAAUUCUCGUAACUACAUAGCACAAGUAGAUGUAGUUAACUUUAAUCUCACAGCAAUGUGAUUUUAAUAGCUUCUUAGGAGAAU
# Biological target: nsp7;nsp8 (SARS-CoV-2;SARS-CoV-2, UniProt P0DTD1;P0DTD1 3860-3942;3943-4140, |)
# Test: EMSA
row,Binder,Kd [µM]
1,GGAUUCUCGUAACUACAUAGCACAAGUAGAUGUAGUUACUUAGGAGAAU (structured_RNA) [SL],5.7
2,B1,3.7
3,B2,2.4
4,B3,5.3
5,B4,2.6

# Biological target: nsp7 (SARS-CoV-2, UniProt P0DTD1 3860-3942)
# Test: EMSA
row,Binder,binding result
1,GGAUUCUCGUAACUACAUAGCACAAGUAGAUGUAGUUACUUAGGAGAAU (structured_RNA) [SL],no binding
2,B2,no binding
3,B3,no binding
4,B4,no binding

# Biological target: nsp8 (SARS-CoV-2, UniProt P0DTD1 3943-4140)
# Test: EMSA
row,Binder,binding result
1,GGAUUCUCGUAACUACAUAGCACAAGUAGAUGUAGUUACUUAGGAGAAU (structured_RNA) [SL],binds
2,B2,binds
3,B3,binds
4,B4,binds

# Source: PMC11041675
